Laboratory results published in patent US20190256836.

System: T1, recombinant Factor C protein from Tachypleus tridentatus produced in Leishmania tarentolae
T1 sequence: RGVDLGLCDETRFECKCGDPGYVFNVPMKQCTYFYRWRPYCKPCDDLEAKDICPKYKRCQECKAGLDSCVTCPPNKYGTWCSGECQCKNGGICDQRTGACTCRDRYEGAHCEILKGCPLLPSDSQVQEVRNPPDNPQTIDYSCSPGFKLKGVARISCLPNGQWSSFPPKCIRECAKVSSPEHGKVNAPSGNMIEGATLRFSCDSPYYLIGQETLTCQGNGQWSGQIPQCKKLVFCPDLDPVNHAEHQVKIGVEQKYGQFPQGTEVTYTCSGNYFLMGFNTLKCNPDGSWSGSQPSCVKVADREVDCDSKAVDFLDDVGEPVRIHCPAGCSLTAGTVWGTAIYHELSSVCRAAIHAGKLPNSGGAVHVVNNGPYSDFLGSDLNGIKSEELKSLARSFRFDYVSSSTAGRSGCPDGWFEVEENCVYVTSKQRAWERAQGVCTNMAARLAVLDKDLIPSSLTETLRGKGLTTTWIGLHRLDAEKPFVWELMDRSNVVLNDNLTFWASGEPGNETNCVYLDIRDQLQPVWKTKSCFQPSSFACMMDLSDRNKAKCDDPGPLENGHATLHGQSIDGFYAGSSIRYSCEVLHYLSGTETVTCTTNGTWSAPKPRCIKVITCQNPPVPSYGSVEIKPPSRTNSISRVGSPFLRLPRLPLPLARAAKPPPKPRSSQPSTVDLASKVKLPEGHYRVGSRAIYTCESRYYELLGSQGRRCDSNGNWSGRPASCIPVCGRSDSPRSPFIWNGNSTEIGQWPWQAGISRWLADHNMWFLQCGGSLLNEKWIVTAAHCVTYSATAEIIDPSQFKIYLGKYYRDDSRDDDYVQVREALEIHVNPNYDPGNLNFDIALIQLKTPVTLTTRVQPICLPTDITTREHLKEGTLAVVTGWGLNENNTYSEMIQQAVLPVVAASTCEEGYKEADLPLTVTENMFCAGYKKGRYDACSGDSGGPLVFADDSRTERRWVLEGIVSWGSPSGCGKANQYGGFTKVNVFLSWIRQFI
Conditions: in U/mg

Substance: chymotrypsin
- specific activity of activated Factor C (hydrolysis of Boc-Val-Pro-Arg-AMC) (Units/mg protein): 0.658
